Target: TGFβ type I receptor (TβR-I) on human cells (human) (UniProt P36897)
Assay: cell-based or functional assay

TGFβ type I receptor (TβR-I) on human cells (human), sequence (P36897 34-503): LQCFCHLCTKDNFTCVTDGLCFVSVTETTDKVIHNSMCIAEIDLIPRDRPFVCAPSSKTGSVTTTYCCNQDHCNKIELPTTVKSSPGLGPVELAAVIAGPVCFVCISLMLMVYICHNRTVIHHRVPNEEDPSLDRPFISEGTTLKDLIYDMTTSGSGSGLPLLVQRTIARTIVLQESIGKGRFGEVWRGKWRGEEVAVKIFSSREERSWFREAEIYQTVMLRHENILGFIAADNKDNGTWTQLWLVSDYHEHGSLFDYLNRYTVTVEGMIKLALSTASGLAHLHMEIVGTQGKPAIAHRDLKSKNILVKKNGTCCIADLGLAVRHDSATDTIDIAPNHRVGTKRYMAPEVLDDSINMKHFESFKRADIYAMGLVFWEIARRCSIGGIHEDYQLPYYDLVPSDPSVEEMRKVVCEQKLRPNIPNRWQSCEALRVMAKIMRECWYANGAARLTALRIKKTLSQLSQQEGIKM

“TGFβ (exogenous, added to human keratinocyte cultures) (ligand)” gave a growth inhibition of human keratinocytes of 5 pM.
